Assays:
Unkempt ZnF4-6 = molecular target: T1, Unkempt ZnF4-6 (mouse, UniProt Q8BL48 204-335); assay: ITC
T1 sequence: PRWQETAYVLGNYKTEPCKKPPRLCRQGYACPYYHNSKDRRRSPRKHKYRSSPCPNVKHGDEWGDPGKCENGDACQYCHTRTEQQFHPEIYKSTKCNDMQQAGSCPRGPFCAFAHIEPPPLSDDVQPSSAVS

Unkempt ZnF1-6 WT = molecular target: T2, Unkempt ZnF1-6 WT (mouse, UniProt Q8BL48 31-335); assay: EMSA
T2 sequence: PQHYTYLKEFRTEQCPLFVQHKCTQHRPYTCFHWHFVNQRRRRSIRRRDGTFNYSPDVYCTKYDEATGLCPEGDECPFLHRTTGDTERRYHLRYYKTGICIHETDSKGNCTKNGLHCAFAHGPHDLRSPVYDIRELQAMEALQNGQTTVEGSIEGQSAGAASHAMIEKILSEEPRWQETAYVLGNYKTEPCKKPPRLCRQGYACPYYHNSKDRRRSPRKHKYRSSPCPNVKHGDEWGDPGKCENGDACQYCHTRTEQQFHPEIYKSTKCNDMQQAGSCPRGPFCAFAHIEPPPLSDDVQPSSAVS

Unkempt ZnF1-3 = molecular target: T3, Unkempt ZnF1-3 (mouse, UniProt Q8BL48 31-174); assay: ITC
T3 sequence: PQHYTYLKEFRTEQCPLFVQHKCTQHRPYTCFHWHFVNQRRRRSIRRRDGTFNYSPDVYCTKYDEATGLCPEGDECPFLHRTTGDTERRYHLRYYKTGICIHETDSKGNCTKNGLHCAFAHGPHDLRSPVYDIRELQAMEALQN

Binder: ACUUAGAAUUAUUAAUGA (ssRNA) [HSPA8 URE 18-mer WT]
- binding result (Unkempt ZnF4-6): binds
- binding result (Unkempt ZnF1-6 WT): binds

Binder: ACUCCCAAUUAUUAAUGA (ssRNA) [HSPA8 URE 18-mer UAG-mutated]
- binding result (Unkempt ZnF1-3): binds

From PMC4703518
